Test results reported in US20240401082A1 (Sanofi, published 2024).

T1: human complement C1s enzyme (activated C1s) (human, UniProt P09871 16-437; P09871 438-688)
T1 construct: Bought from Complement Technology; Disulfide-linked heterodimer; Biotinylated with EZ-Link Sulfo-NHS-LC-LC-Biotin when captured in BLI; also called active C1s; aC1s
T1 sequence 1: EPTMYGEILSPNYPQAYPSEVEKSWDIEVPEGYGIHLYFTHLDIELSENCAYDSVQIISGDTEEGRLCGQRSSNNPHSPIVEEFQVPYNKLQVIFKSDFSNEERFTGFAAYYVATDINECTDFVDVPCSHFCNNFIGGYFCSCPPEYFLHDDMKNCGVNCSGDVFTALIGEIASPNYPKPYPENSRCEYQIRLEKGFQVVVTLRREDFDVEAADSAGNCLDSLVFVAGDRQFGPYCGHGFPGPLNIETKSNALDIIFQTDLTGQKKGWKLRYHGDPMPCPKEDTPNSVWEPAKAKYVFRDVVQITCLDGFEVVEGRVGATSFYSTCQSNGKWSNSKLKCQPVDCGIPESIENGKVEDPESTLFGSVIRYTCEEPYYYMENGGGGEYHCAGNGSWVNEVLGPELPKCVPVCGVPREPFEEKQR
T1 sequence 2: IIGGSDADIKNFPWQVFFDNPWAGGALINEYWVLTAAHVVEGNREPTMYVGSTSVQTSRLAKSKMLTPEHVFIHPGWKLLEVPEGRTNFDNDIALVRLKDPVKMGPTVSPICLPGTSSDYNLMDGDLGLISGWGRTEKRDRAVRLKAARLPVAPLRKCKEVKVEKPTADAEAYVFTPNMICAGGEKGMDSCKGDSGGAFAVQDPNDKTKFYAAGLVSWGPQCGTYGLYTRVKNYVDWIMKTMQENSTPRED


Key:
[1] = target: T1, human complement C1s enzyme (activated …); test: BLI (Octet), biotinylated target on streptavidin sensor
Excerpt: (§1) Bio-layer interferometry (BLI) was used to assess the recombinant proteins' target engagement to and binding affinity for complement C1s enzyme (active C1s or “C1s” herein) and factor Bb (Bb) (Complement Technology, Tyler, TX, USA). C1s and Bb were biotinylated with EZ-Link™ Sulfo-NHS-LC-LC-Biotin (Thermo Fisher, Waltham, MA, USA) according to manufacturer instructions. Biotinylated C1s or Bb was loaded on Octet® Streptavidin (SA) Biosensors (Sartorius, Göttingen, Germany), followed by a concentration range of purified proteins. To assess dual target engagement, biotinylated active C1s or Bb was loaded onto sensors, followed by purified proteins (“first association phase”), followed by the non-captured complement target (Bb or active C1s, non-biotinylated; “second association phase”). The assays were performed at 30° C. using PBS with 0.1% Tween 20 as a diluent (FIG. 3).

[2] = target: T2, human complement factor Bb (human, UniProt P00751 260-764); test: as above
T2 construct: Bought from Complement Technology; Biotinylated with EZ-Link Sulfo-NHS-LC-LC-Biotin when captured in BLI; also called FBb
T2 sequence (P00751 260-764): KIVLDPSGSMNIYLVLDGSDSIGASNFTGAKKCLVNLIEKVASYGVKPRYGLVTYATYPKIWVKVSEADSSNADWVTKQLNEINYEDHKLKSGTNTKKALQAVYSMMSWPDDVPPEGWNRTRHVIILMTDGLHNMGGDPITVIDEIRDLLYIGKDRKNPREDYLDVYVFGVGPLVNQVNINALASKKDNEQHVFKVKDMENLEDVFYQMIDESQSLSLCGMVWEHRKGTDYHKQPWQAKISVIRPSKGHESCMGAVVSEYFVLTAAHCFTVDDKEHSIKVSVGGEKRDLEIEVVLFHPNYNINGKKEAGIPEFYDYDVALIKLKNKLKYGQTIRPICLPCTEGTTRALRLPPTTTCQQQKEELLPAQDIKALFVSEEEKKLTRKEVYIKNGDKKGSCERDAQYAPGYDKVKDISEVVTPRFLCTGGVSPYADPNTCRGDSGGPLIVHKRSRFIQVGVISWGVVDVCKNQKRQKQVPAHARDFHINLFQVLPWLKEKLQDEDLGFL
Excerpt: as §1

[3] = target: T1, human complement C1s enzyme (activated …); test: cell-based or functional assay
[4] = target: T2, human complement factor Bb; test: cell-based or functional assay
[5] = target: T1, human complement C1s enzyme (activated …); test: BLI dual target engagement: one target captured, then protein, then the other target
Excerpt: as §1

[6] = target: T2, human complement factor Bb; test: as above
Excerpt: as §1

Binder	Kd [1] [nM]	koff [1] [s⁻¹]	kon [1] [M⁻¹ s⁻¹]	Kd [2] [nM]	koff [2] [s⁻¹]	kon [2] [M⁻¹ s⁻¹]	IC50 CP (Wieslab) [3] [nM]	IC50 AP (Wieslab) [4] [nM]	IC50 AP (Wieslab); curve not saturated, estimated [4] [nM]	binding result [5]	binding result [6]
construct #7: αC1s scFab-(G4S)3-αBb scFab (bispecific antibody, Signal peptide marked by boldface only) DIVLTQSPDSLAVSLGERATISCKASQSVDYDGDSYMNWYQQKPGQPPKILIYDASNLESGIPARFSGSGSGTDFTLTISSLEPEDFAIYYCQQSNEDPWTFGGGTKVEIKRTVAAPSVFIFPPSDEQLKSGTASVVCLLNNFYPREAKVQWKVDNALQSGNSQESVTEQDSKDSTYSLSSTLTLSKADYEKHKVYACEVTHQGLSSPVTKSFNRGECGGGGSGGGGSGGGGSGGGGSGGGGSGGGGSGGGGSQVQLVQSGAEVKKPGASVKLSCTASGFNIKDDYIHWVKQAPGQGLEWIGRIDPADGHTKYAPKFQVKVTITADTSTSTAYLELSSLRSEDTAVYYCARYGYGREVFDYWGQGTTVTVSSASTKGPSVFPLAPCSRSTSESTAALGCLVKDYFPEPVTVSWNSGALTSGVHTFPAVLQSSGLYSLSSVVTVPSSSLGTKTYTCNVDHKPSNTKVDKRVGGGGSGGGGSGGGGSDIQMTQSPSTLSASVGDRVTITCKASQDVGTAVAWYQQKPGKAPKLLIYWASTRHTGVPDRFSGSGSGTDFTLTISSLQAEDFAVYFCHQHSSNPLTFGQGTKLEIKRTVAAPSVFIFPPSDEQLKSGTASVVCLLNNFYPREAKVQWKVDNALQSGNSQESVTEQDSKDSTYSLSSTLTLSKADYEKHKVYACEVTHQGLSSPVTKSFNRGECGGGGSGGGGSGGGGSGGGGSGGGGSGGGGSGGGGSEVQLVESGGGLVKPGGSLRLSCAASGFTFSNYAMSWVRQAPGKRLEWVATISNRGSYTYYPDSVKGRFTISRDNAKNSLYLQMNSLRAEDTALYYCARERPMDYWGQGTLVTVSSASTKGPSVFPLAPCSRSTSESTAALGCLVKDYFPEPVTVSWNSGALTSGVHTFPAVLQSSGLYSLSSVVTVPSSSLGTKTYTCNVDHKPSNTKVDKRV	1.8	0.00047	260000	9.3	0.00054	60000	45.9	570			
construct #15: αC1s scFab-(G4S)3-αBb scFv (bispecific antibody, Residues 1-20 were left out as the signal peptide, which is marked by boldface only) DIVLTQSPDSLAVSLGERATISCKASQSVDYDGDSYMNWYQQKPGQPPKILIYDASNLESGIPARFSGSGSGTDFTLTISSLEPEDFAIYYCQQSNEDPWTFGGGTKVEIKRTVAAPSVFIFPPSDEQLKSGTASVVCLLNNFYPREAKVQWKVDNALQSGNSQESVTEQDSKDSTYSLSSTLTLSKADYEKHKVYACEVTHQGLSSPVTKSFNRGECGGGGSGGGGSGGGGSGGGGSGGGGSGGGGSGGGGSQVQLVQSGAEVKKPGASVKLSCTASGFNIKDDYIHWVKQAPGQGLEWIGRIDPADGHTKYAPKFQVKVTITADTSTSTAYLELSSLRSEDTAVYYCARYGYGREVFDYWGQGTTVTVSSASTKGPSVFPLAPCSRSTSESTAALGCLVKDYFPEPVTVSWNSGALTSGVHTFPAVLQSSGLYSLSSVVTVPSSSLGTKTYTCNVDHKPSNTKVDKRVGGGGSGGGGSGGGGSEVQLVESGGGLVKPGGSLRLSCAASGFTFSNYAMSWVRQAPGKRLEWVATISNRGSYTYYPDSVKGRFTISRDNAKNSLYLQMNSLRAEDTALYYCARERPMDYWGQGTLVTVSSGGGGSGGGGSGGGGSDIQMTQSPSTLSASVGDRVTITCKASQDVGTAVAWYQQKPGKAPKLLIYWASTRHTGVPDRFSGSGSGTDFTLTISSLQAEDFAVYFCHQHSSNPLTFGQGTKLEIK	1.6	0.00057	370000	3.9	0.00045	120000	34.7	405			
construct #17: αC1s F2A Fab-(G4S)3-αBb scFab (bispecific antibody) light: DIVLTQSPDSLAVSLGERATISCKASQSVDYDGDSYMNWYQQKPGQPPKILIYDASNLESGIPARFSGSGSGTDFTLTISSLEPEDFAIYYCQQSNEDPWTFGGGTKVEIKRTVAAPSVFIFPPSDEQLKSGTASVVCLLNNFYPREAKVQWKVDNALQSGNSQESVTEQDSKDSTYSLSSTLTLSKADYEKHKVYACEVTHQGLSSPVTKSFNRGEC QVQLVQSGAEVKKPGASVKLSCTASGFNIKDDYIHWVKQAPGQGLEWIGRIDPADGHTKYAPKFQVKVTITADTSTSTAYLELSSLRSEDTAVYYCARYGYGREVFDYWGQGTTVTVSSASTKGPSVFPLAPCSRSTSESTAALGCLVKDYFPEPVTVSWNSGALTSGVHTFPAVLQSSGLYSLSSVVTVPSSSLGTKTYTCNVDHKPSNTKVDKRVGGGGSGGGGSGGGGSDIQMTQSPSTLSASVGDRVTITCKASQDVGTAVAWYQQKPGKAPKLLIYWASTRHTGVPDRFSGSGSGTDFTLTISSLQAEDFAVYFCHQHSSNPLTFGQGTKLEIKRTVAAPSVFIFPPSDEQLKSGTASVVCLLNNFYPREAKVQWKVDNALQSGNSQESVTEQDSKDSTYSLSSTLTLSKADYEKHKVYACEVTHQGLSSPVTKSFNRGECGGGGSGGGGSGGGGSGGGGSGGGGSGGGGSGGGGSEVQLVESGGGLVKPGGSLRLSCAASGFTFSNYAMSWVRQAPGKRLEWVATISNRGSYTYYPDSVKGRFTISRDNAKNSLYLQMNSLRAEDTALYYCARERPMDYWGQGTLVTVSSASTKGPSVFPLAPCSRSTSESTAALGCLVKDYFPEPVTVSWNSGALTSGVHTFPAVLQSSGLYSLSSVVTVPSSSLGTKTYTCNVDHKPSNTKVDKRV										binds	binds

More lines, now with the values ahead:

Kd [1] [nM]	koff [1] [s⁻¹]	kon [1] [M⁻¹ s⁻¹]	Kd [2] [nM]	koff [2] [s⁻¹]	kon [2] [M⁻¹ s⁻¹]	IC50 CP (Wieslab) [3] [nM]	IC50 AP (Wieslab) [4] [nM]	IC50 AP (Wieslab); curve not saturated, estimated [4] [nM]	binding result [5]	binding result [6]	Binder
2.7	0.00058	210000	8.8	0.00051	60000	49.7		~1000			construct #11: αC1s scFab-(G4S)3-αBb scFab-CM (bispecific antibody, Residues 1-20 were left out as the signal peptide, which is marked by boldface only) DIVLTQSPDSLAVSLGERATISCKASQSVDYDGDSYMNWYQEKPGQPPKILIYDASNLESGIPARFSGSGSGTDFTLTISSLEPEDFAIYYCQQSNEDPWTFGGGTKVEIKRTVAAPSVFIFPPSDEQLKSGTASVVCLLNNFYPREAKVQWKVDNALQSGNSQESVTEQDSKDSTYSLSSTLTLSKADYEKHKVYACEVTHQGLSSPVTKSFNRGECGGGGSGGGGSGGGGSGGGGSGGGGSGGGGSGGGGSQVQLVQSGAEVKKPGASVKLSCTASGFNIKDDYIHWVKKAPGQGLEWIGRIDPADGHTKYAPKFQVKVTITADTSTSTAYLELSSLRSEDTAVYYCARYGYGREVFDYWGQGTTVTVSSASTKGPSVFPLAPCSRSTSESTAALGCLVKDYFPEPVTVSWNSGALTSGVHTFPAVLQSSGLYSLSSVVTVPSSSLGTKTYTCNVDHKPSNTKVDKRVGGGGSGGGGSGGGGSDIQMTQSPSTLSASVGDRVTITCKASQDVGTAVAWYQKKPGKAPKLLIYWASTRHTGVPDRFSGSGSGTDFTLTISSLQAEDFAVYFCHQHSSNPLTFGQGTKLEIKRTVAAPAVFIFPPSDEQLKSGTASVVCLLKNFYPREAKVQWKVDNALQSGNSQESVTEQDSKDSTYSLSSTLTLSKADYEKHKVYACEVTHQGLSSPVTKSFNRGECGGGGSGGGGSGGGGSGGGGSGGGGSGGGGSGGGGSEVQLVESGGGLVKPGGSLRLSCAASGFTFSNYAMSWVREAPGKRLEWVATISNRGSYTYYPDSVKGRFTISRDNAKNSLYLQMNSLRAEDTALYYCARERPMDYWGQGTLVTVSSASTKGPSVFPLAPCSRSTSESTAALGCLVKDYFPEPVTVSWNSGALTSGVHTFPAVLQSSGLYSLSSVVEVPSSSLGTKTYTCNVDHKPSNTKVDKRV
1.4	0.00051	360000	2.5	0.00023	90000	35.4	586				construct #16: αC1s scFab-(G4S)3-αBb scFv-CM (bispecific antibody, Residues 1-20 were left out as the signal peptide, which is marked by boldface only) DIVLTQSPDSLAVSLGERATISCKASQSVDYDGDSYMNWYQEKPGQPPKILIYDASNLESGIPARFSGSGSGTDFTLTISSLEPEDFAIYYCQQSNEDPWTFGGGTKVEIKRTVAAPSVFIFPPSDEQLKSGTASVVCLLNNFYPREAKVQWKVDNALQSGNSQESVTEQDSKDSTYSLSSTLTLSKADYEKHKVYACEVTHQGLSSPVTKSFNRGECGGGGSGGGGSGGGGSGGGGSGGGGSGGGGSGGGGSQVQLVQSGAEVKKPGASVKLSCTASGFNIKDDYIHWVKKAPGQGLEWIGRIDPADGHTKYAPKFQVKVTITADTSTSTAYLELSSLRSEDTAVYYCARYGYGREVFDYWGQGTTVTVSSASTKGPSVFPLAPCSRSTSESTAALGCLVKDYFPEPVTVSWNSGALTSGVHTFPAVLQSSGLYSLSSVVTVPSSSLGTKTYTCNVDHKPSNTKVDKRVGGGGSGGGGSGGGGSEVQLVESGGGLVKPGGSLRLSCAASGFTFSNYAMSWVREAPGKRLEWVATISNRGSYTYYPDSVKGRFTISRDNAKNSLYLQMNSLRAEDTALYYCARERPMDYWGQGTLVTVSSGGGGSGGGGSGGGGSDIQMTQSPSTLSASVGDRVTITCKASQDVGTAVAWYQKKPGKAPKLLIYWASTRHTGVPDRFSGSGSGTDFTLTISSLQAEDFAVYFCHQHSSNPLTFGQGTKLEIK
